Measured values published in patent publication US20190292256A1, “Compounds and Methods to Measure Metabolic Function and Restore Normal Metabolic Function” (priority 2010, published 2019).

B1: Wnt5a: recombinant mouse Wnt5a protein produced in CHO cells, purchased from R&D Systems (protein)
chain: IIGAQPLCSQLAGLSQGQKKLCHLYQDHMQYIGEGAKTGIKECQYQFRHRRWNCSTVDNTSVFGRVMQIGSRETAFTYAVSAAGVVNAMSRACREGELSTCGCSRAARPKDLPRDWLWGGCGDNIDYGYRFAKEFVDARERERIHAKGSYESARILMNLHNNEAGRRTVYNLADVACKCHGVSGSCSLKTCWLQLADFRKVGDALKEKYDSAAAMRLNSRGKLVQVNSRFNSPTTQDLVYIDPSPDYCVRNESTGSLGTQGRLCNKTSEGMDGCELMCCGRGYDQFKTVQTERCHCKFHWCCYVKCKKCTEIVDQFVCK
B2: Sfrp5: secreted frizzled-related protein 5, here overexpressed in adipocytes by AdTRE-Sfrp5 transduction (protein, UniProt Q9WU66 22-314, looked up)
Secreted frizzled-related …: APTRGQEYDYYGWQAEPLHGRSYSKPPQCLDIPADLPLCHTVGYKRMRLPNLLEHESLAEVKQQASSWLPLLAKRCHSDTQVFLCSLFAPVCLDRPIYPCRSLCEAARAGCAPLMEAYGFPWPEMLHCHKFPLDNDLCIAVQFGHLPATAPPVTKICAQCEMEHSADGLMEQMCSSDFVVKMRIKEIKIDNGDRKLIGAQKKKKLLKAGPLKRKDTKKLVLHMKNGASCPCPQLDNLTGSFLVMGRKVEGQLLLTAVYRWDKKNKEMKFAVKFMFSYPCSLYYPFFYGAAEPH

What was measured:
Assay type in all cases: cell-based, mouse
[1] = system: 3T3-L1 adipocytes; assay: Sfrp5 and adiponectin transcript expression in 3T3-L1 adipocytes treated with stress agents (QRT-PCR); conditions: differentiated 3T3-L1 adipocytes, 24 h; TNFα 10 ng/ml, H2O2 0.2 mM, tunicamycin 5 μg/ml
Protocol: (§1) Mouse 3T3-L1 cells (ATCC) were maintained in DMEM with 10% fetal bovine serum (FBS) and differentiated into adipocytes by treatment with DMEM supplemented with 5 μg/ml of insulin, 0.5 mM 1-methyl-3-isobutyl-xanthin, and 1 μM dexamethazone. At day 7 after differentiation, 3T3-L1 adipocytes were treated with tunicamycin, H2O2, TNFα or vehicle for 24 h. Peritoneal macrophages from lean WT C57BL/6 mice were maintained in DMEM supplemented 10% FBS and placed in DMEM with 0.5% FBS for 16 h for serum starvation. Macrophages were incubated in the conditioned media from 3T3-L1 adipocytes transduced with adenoviral vectors in the presence of Wnt5a protein (200 ng/ml) or vehicle for 24 h. In some experiments, cells were pretreated with SP600125 (15 μM) or vehicle for 1 h followed by treatment with Wnt5a protein.
(§2) Epididymal fat pads from male wild-type C57BL/6 mice fed a normal diet were excised, minced in PBS and digested with 1 mg/ml collagenase Type 1 (Worthington Chemical Corporation) at 37° C. for 30 min. The digested fat tissue was filtered through a mesh and centrifuged at 1000 rpm for 5 min to separate floating adipocytes from the SV fraction. Measurement of mRNA Levels Gene expression level was quantified by real-time PCR. Total RNA was prepared with the use of a Qiagen kit. cDNA was produced using ThermoScript RT-PCR Systems (Invitrogen). PCR was performed on iCycler iQ Real-Time PCR Detection System (Bio-Rad) using SYBR Green 1 as a double standard DNA specific dye (Applied Biosystems).

[2] = system: TNFα and IL-6 transcript expression by macrophages; assay: Wnt5a-stimulated TNFα and IL-6 transcript expression in peritoneal macrophages (QRT-PCR); conditions: Wnt5a 200 ng/ml, 24 h
Protocol: as §1
as §2, with “PCR was performed on iCycler iQ Real-Time PCR Detection System (Bio-Rad) using SYBR Green 1 as a double standard DNA specific dye (Applied Biosystems).” left out

[3] = system: phosphorylation of JNK in adipocytes; assay: Wnt5a-stimulated JNK phosphorylation in 3T3-L1 adipocytes (immunoblot); conditions: Wnt5a 30 min
Protocol: as §1

[4] = system: JNK phosphorylation in macrophages; assay: Wnt5a-stimulated JNK phosphorylation in peritoneal macrophages (immunoblot); conditions: in conditioned media from Ad-β-gal-treated 3T3-L1 adipocytes, 30 min
Protocol: as §1, with “Macrophages were incubated in the conditioned media from 3T3-L1 adipocytes transduced with adenoviral vectors in the presence of Wnt5a protein (200 ng/ml) or vehicle for 24 h.” left out

[5] = system: TOPflash reporter activity (canonical Wnt signaling); assay: TOPflash luciferase reporter assay in 3T3-L1 adipocytes; conditions: Wnt5a 200 ng/ml 24 h, AdTRE-Sfrp5 transduction
Protocol: 3T3-L1 adipocytes were transduced with adenoviral vectors for 24 h and co-transfected with a TOPflash (Upstate) construct and a Renilla luciferase control plasmid (pRL-SV40, Promega) to normalize for transfection efficiency. After transfection, cells were treated with Wnt5a protein (200 ng/ml) or vehicle. Cells were lysed and analyzed on a luminometer by using dual luciferase assay kit (Promega).

[6] = system: IL-6 expression in adipocytes; assay: Wnt5a-stimulated IL-6 expression in 3T3-L1 adipocytes (QRT-PCR); conditions: Wnt5a 200 ng/ml 24 h
Protocol: as §1
as §2, with “PCR was performed on iCycler iQ Real-Time PCR Detection System (Bio-Rad) using SYBR Green 1 as a double standard DNA specific dye (Applied Biosystems).” left out

Row | Molecule | Sfrp5 transcript levels [1] | transcript level of adiponectin [1] | effect on TOPflash reporter activity [5] | also measured
1 | OO [hydrogen peroxide] | significantly reduced | down-regulated |  | 
2 | TNFα | significantly reduced | down-regulated |  | 
3 | tunicamycin | significantly reduced | down-regulated |  | 
4 | B1 |  |  | neither Sfrp5 nor Wnt5a had an effect | IL-6 transcript expression by macrophages [2]: increased; TNFα transcript expression by macrophages [2]: increased; phosphorylation of JNK in adipocytes [3]: stimulatory effects; JNK phosphorylation in macrophages [4]: stimulated; IL-6 expression in adipocytes [6]: stimulatory effects
5 | B2 |  |  | neither Sfrp5 nor Wnt5a had an effect | 
